Reference: PMC8560851
One block for each binder: values may come before it.

Target: Full-length isoform 165 of human VEGF-A (human) (UniProt P15692)
Experiment: SPR; Biacore T200, 25 °C, PBS with 0.05% Tween 20 and 3.4 mM EDTA; VEGF-A amine-coupled to a CM-5 chip; Fab injected in single cycle kinetics with five increasing concentrations; double referenced; fit to a 1:1 Langmuir binding model

Chain of Full-length isoform 165 of human VEGF-A (human) (P15692 other isoform, or with tags, fused parts or gaps): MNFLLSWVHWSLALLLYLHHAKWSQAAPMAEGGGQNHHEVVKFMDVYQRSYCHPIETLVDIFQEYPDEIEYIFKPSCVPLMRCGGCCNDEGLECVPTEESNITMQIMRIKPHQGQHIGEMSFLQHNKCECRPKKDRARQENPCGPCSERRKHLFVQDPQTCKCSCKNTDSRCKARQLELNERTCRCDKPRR

Kd: 8 nM
B1: bH1 Fab H3 variant 16_0325 (Fab, V domains shown)
VH: EVQLVESGGGLVQPGGSLRLSCAASGFNIKDTYIHWVRQAPGKGLEWVARIYPTNGYTRYADSVKGRFTISADTSKNTAYLQMNSLRAEDTAVYYCARGGAVAGTGVYYFDYWGQGTLVTVSS
VL: DIQMTQSPSSLSASVGDRVTITCRASQDIPRSISGYVAWYQQKPGKAPKLLIYWGSYLYSGVPSRFSGSGSGTDFTLTISSLQPEDFATYYCQQHYTTPPTFGQGTKVEIK

Kd: 8 nM
B2: bH1 Fab H3 variant 14_0112 (Fab, V domains shown)
VH: EVQLVESGGGLVQPGGSLRLSCAASGFNIKDTYIHWVRQAPGKGLEWVARIYPTNGYTRYADSVKGRFTISADTSKNTAYLQMNSLRAEDTAVYYCAKGGSSSGPYHFEYWGQGTLVTVSS
VL: B1 VL
